Here are results for one molecule from patent CN109678957A.

The assay has as its target 人重组TSLP蛋白 (recombinant human TSLP protein from E. coli GDMCC No:60083) (human) (UniProt Q969D9). The assay can be described thus: ELISA, dilution series of the antibody on TSLP antigen protein (Fig. 4). Background: ELISA stands for enzyme-linked immunosorbent assay.
Sequence of UniProt Q969D9 (Q969D9 29-159 limits assumed): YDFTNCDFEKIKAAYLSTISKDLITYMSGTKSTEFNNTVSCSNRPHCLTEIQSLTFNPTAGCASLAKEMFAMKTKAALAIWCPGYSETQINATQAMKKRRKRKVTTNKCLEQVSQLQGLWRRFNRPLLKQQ

B1: 抗人TSLP单克隆抗体 (anti-human TSLP monoclonal antibody, from hybridoma ascites, Example 3) (antibody, IgG1, V domains shown)
VH: QIQLVQSGPELKKPGETVKISCKASGYTFTNYGMNWVKQAPGKGLKWMGWINTYTGEPTYADDFKGRFAFSLETSASTAYLQINNLKNEDMATYFCARGLTGTRGRFAYWGQGTLVTVSA
VL: DIVMTQSHKFMSTSVGDRVSITCKASQDVSTAVAWYQQKPGQSPKLLIYWASTRHTGVPDRFTGSGSGTDYTLTISSVQAEDLALYYCQQHYSTPPTFGGGTKLEIK
For the molecule B1, the 效价 (titer, dilution fold at which OD is more than 2 times the negative control) (倍 (dilution fold)) was found to be 655000.
